The record followed here is patent US20240415889A1.

In assay [1] the target is CD94/NKG2A. The assay is described as follows: BLI.
Target sequence in this assay (main, as listed by the source): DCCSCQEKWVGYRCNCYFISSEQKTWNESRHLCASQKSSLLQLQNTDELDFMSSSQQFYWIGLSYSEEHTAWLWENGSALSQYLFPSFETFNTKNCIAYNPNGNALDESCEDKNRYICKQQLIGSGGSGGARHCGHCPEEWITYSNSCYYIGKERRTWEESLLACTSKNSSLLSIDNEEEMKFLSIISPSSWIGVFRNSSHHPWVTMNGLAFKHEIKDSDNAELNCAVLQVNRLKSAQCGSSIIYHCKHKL
For assay [2], the target named is CD94/NKG2A. Kind of assay: competitive ELISA (HLA-E tetramer); FIG. 26.
Target sequence in this assay (main, as listed by the source): as above
Assay [3] has as its target CD94/NKG2A. The assay is described as follows: reported IC50; reported value.
The target of assay [4] is CD94/NKG2A. The assay is described as follows: competitive ELISA (HLA-E tetramer).
Target sequence in this assay (main, as listed by the source): as above

For Mona analog IgG1 (LALA-PG), in the assay with CD94/NKG2A [1], the Kd came out at 4.32 nM.

For Monalizumab, the IC50 with CD94/NKG2A [2] amounted to 1 nM; with CD94/NKG2A [3] it was 2 nM; with CD94/NKG2A [4], 1.5 nM.
